In patent publication US20130011386A1:

Each substance was assayed against FcγRIIIa (human) (UniProt P08637) (assay: cell-based or functional assay).
Chain of FcγRIIIa (human) (P08637 17-208 limits assumed): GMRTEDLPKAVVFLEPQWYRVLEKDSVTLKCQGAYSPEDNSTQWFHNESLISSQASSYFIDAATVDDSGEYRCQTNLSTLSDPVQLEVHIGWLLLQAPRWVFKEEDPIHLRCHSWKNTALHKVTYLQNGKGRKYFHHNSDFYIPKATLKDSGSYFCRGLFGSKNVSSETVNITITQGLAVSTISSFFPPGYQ

ADCC EC50 [ng/mL]	ADCC fold (EC50 IgG1 wt/EC50 construct) [fold]	Substance
0.14		2h S239D/K326A/E333A (construct 16), anti-CD142 antibody
5.6	0.08	2h S267E/I332E (construct 17), anti-CD142 antibody
0.42	1	IgG1 wt (construct 1), anti-CD142 antibody with wild type human IgG1 constant region

Target: FcγRIIIa (human) (UniProt P08637)
Assay: cell-based or functional assay
Remark: another data set of the same source

ADCC EC50 [ng/mL]	ADCC fold (EC50 IgG1 wt/EC50 construct) [fold]	ADCC (shift in apparent EC50 against IgG1 wt), PBMC effectors, MDA-MB-231 targets [fold]	Substance
0.31	15		2h F243L/R292P/Y300L (construct 7), anti-CD142 antibody
0.47	10		2h G237A/S239D/I332E (construct 12, X = A), anti-CD142 antibody
21	0.2		2h K326A/E333A (construct 11), anti-CD142 antibody
0.7			2h S239D/H268F/S324T/I332E (construct 9), anti-CD142 antibody
0.53	9	8	2h S239D/I332E (construct 5), anti-CD142 antibody
4.8			IgG1 wt (construct 1), anti-CD142 antibody with wild type human IgG1 constant region
